Series [1] deals with the molecule itself. Put plainly: 1H NMR NOESY, self-association. How it is done:
The secondary and tertiary structures of LA-42h were investigated by ¹H-NMR spectroscopy. The ¹H-NMR spectrum of LA-42h was assigned from the TOCSY and NOESY spectra recorded in H₂O:D₂O (90:10 v/v) containing 4 vol % of TFE-d₃ at 308 K using methods described in detail previously [S. Olofsson, L. Baltzer, Folding & Design 1996, 347-356]. Most of the spin systems of the amino acids were identified from the αH—NH region in the TOCSY spectrum and the sequential assignments of residues 5 to 19 and 23 to 41were obtained from the NH—NH region in the NOESY spectrum. Due to the cis-trans equilibrium of Pro21, an extra set of resonances with low intensity from the amino acids near the proline in the loop region was identified. The aH chemical shifts are diagnostic of secondary structure formation, and the measured values were compared to tabulated values for random coil conformations [D. S. Wishart, B. D. Sykes, F. M. Richards, J. Mol. Biol. 1991, 222, 311-333]. From their upfield shifts relative to the random coil values, two helical segments were identified in the sequence of LA-42h from […] Nle16 and from Ala25 to Arg40. A loop region was also assigned from the downfield shifts, or absence of deviation relative to random coil conformation, of the α protons. […]

Series [2] deals with the molecule itself. Kind of series: 1H NMR NOESY and CD spectroscopy, self-association. The source says:
This is because NOEs only arise between nuclei separated by less than 5 Å [K. Wüthrich, NMR of proteins and nucleic acids, John Wiley & Sons, Inc., 1986] and the distances between Phe35 and Nle16, and between N15 and Lys19, are too long to give rise to NOEs within the monomer and too long to give rise to NOEs in a parallel dimer. […] The inventor concludes that KA-I forms an antiparallel dimer of helix-loop-helix hairpin motifs, and that residues in a and d positions are positioned in the hydrophobic core, whereas all other residues are solvent exposed.
CD spectra were recorded on a Jasco J-715 CD spectropolarimeter, in 0.1, 0.5, or 1 mm cuvettes in the interval from 280-190 nm at room temperature. Each spectrum is an average of six scans and the background was subtracted from the spectrum before the mean residue ellipticity at 222 nm was measured. A 1 mM stock peptide solution was prepared by dissolving the peptide in buffer, under the assumption that the lyophilized peptide contains 25% water. The pH was adjusted by addition of small amounts of 0.1 M-1 M NaOH or HCl. For the concentration dependent studies the stock peptide solution was diluted to the desired concentrations by pipetting. […] The concentration of the stock solution for the concentration dependent measurement was determined by quantitative amino acid analysis. […]

Non-standard residues stand in square brackets, D forms with d. Nle = CCCC[C@H](N)C(=O)O; Orn = NCCC[C@H](N)C(=O)O

B1: LA-42h (peptide)
chain: Ac-NAAD[Nle]EAKIRHLAEK[Nle]AARGPVDAAQ[Nle]AEQLAKKFEAFARAG-NH2
modifications: also: two monomers associate antiparallel into four-helix bundle (dimer)
notes: two monomers associate antiparallel into a four-helix bundle
On to B1, for which the binding result in series [1] is on record as “binds”.

Ac-NAAD[Nle]EAAIKALAEK[Nle]AAKGPVDAAQ[Nle]AEQLAK[Orn]FEAFARAG-NH2 (also: two monomers associate antiparallel into four-helix bundle (dimer)) [KA-I]: in series [2], the binding result is given as “binds”.

The record behind these values is patent US20060234291A1 (MODPRO, published 2006).
